Experimental data published in patent US20090311253A1 (AbbVie / Abbott, published 2009).
“And” between values parts separate entries of the source, which are not always exact repeats. Equal values may be shown once.

What was measured:
[1] = biological target: T1, Recombinant Human TRANCE/RANKL/TNFSF 11 (human, UniProt O14788 69-317); test: Biacore SPR
T1 construct: extracellular domain
T1 sequence (looked up): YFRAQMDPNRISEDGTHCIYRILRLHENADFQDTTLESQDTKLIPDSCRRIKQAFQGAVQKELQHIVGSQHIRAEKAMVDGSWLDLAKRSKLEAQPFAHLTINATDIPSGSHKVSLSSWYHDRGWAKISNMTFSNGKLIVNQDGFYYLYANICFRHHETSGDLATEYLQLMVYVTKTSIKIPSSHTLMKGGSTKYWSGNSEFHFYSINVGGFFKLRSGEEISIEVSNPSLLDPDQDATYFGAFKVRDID
Method: (§1) The BIACORE assay (Biacore, Inc, Piscataway, N.J.) determines the affinity of antibodies or DVD-Ig with kinetic measurements of on-rate and off-rate constants. Binding of antibodies or DVD-Ig to a target antigen (for example, a purified recombinant target antigen) is determined by surface plasmon resonance-based measurements with a BiacoreR 1000 or 3000 instrument (Biacore® AB, Uppsala, Sweden) using running HBS-EP (10 mM HEPES [pH 7.4], 150 mM NaCl, 3 mM EDTA, and 0.005% surfactant P20) at 25° C. All chemicals are obtained from Biacore® AB (Uppsala, Sweden) or otherwise from a different source as described in the text. For example, approximately 5000 RU of goat anti-mouse IgG, (Fcγ), fragment specific polyclonal antibody (Pierce Biotechnology Inc, Rockford, Ill.) diluted in 10 mM sodium acetate (pH 4.5) is directly immobilized across a CM5 research grade biosensor chip using a standard amine coupling kit according to manufacturer's instructions and procedures at 25 μg/ml. Unreacted moieties on the biosensor surface are blocked with ethanolamine. Modified carboxymethyl dextran surface in flowcell 2 and 4 is used as a reaction surface. Unmodified carboxymethyl dextran without goat anti-mouse IgG in flow cell 1 and 3 is used as the reference surface. For kinetic analysis, rate equations derived from the 1:1 Langmuir binding model are fitted simultaneously to association and dissociation phases of all eight injections (using global fit analysis) with the use of Biaevaluation 4.0.1 software. Purified antibodies or DVD-Ig are diluted in HEPES-buffered saline for capture across goat anti-mouse IgG specific reaction surfaces. Antibodies or DVD-Ig to be captured as a ligand (25 μg/ml) are injected over reaction matrices at a flow rate of 5 μl/min. The association and dissociation rate constants, kₒₙ (M⁻¹s⁻¹) and koff (s⁻¹) are determined under a continuous flow rate of 25 μl/min. Rate constants are derived by making kinetic binding measurements at different antigen concentrations ranging from […]. The equilibrium dissociation constant (M) of the reaction between antibodies or DVD-Igs and the target antigen is then calculated from the kinetic rate constants by the following formula: KD=koff/kₒₙ. Binding is recorded as a function of time and kinetic rate constants are calculated.

Recombinant Human IL-1β [2] = biological target: T2, Recombinant Human IL-1β (human, UniProt P01584 117-269); test: Biacore SPR
T2 construct: also called IL-1b; IL-1B
Method: as §1

[3] = biological target: T1, Recombinant Human TRANCE/RANKL/TNFSF 11; test: direct bind ELISA
Method: (§2) Enzyme Linked Immunosorbent Assays to screen for antibodies that bind a desired target antigen were performed as follows. High bind ELISA plates (Corning Costar # 3369, Acton, Mass.) were coated with 100 μL/well of 10 μg/ml of desired target antigen (R&D Systems, Minneapolis, Minn.) or desired target antigen extra-cellular domain/FC fusion protein (R&D Systems, Minneapolis, Minn.) or monoclonal mouse anti-polyhistidine antibody (R&D Systems # MAB050, Minneapolis, Minn.) in phosphate buffered saline (10×PBS, Abbott Bioresearch Center, Media Prep# MPS-073, Worcester, Mass.) overnight at 4° C. Plates were washed four times with PBS containing 0.02% Tween 20. Plates were blocked by the addition of 300 μL/well blocking solution (non-fat dry milk powder, various retail suppliers, diluted to 2% in PBS) for ½ hour at room temperature. Plates were washed four times after blocking with PBS containing 0.02% Tween 20.
(§3) Plates were washed 4 times with PBS containing 0.02% Tween 20.
(§4) One hundred microliters of enhanced TMB solution (Neogen Corp. #308177, K Blue, Lexington, Ky.) was added to each well and incubated for 10 minutes at room temperature. The reaction was stopped by the addition of 50 μL 1N sulphuric acid. Plates were read spectrophotometrically at a wavelength of 450 nm.

Recombinant Human IL-1β [4] = biological target: T2, Recombinant Human IL-1β; test: direct bind ELISA
Method: as §2, §3, §4

Recombinant Human IL-1β [5] = biological target: T2, Recombinant Human IL-1β; test: cell-based or functional assay
Recombinant Human IL-9 = Recombinant Human IL-9 (human, UniProt P15248 19-144); test: Biacore SPR
Method: as §1

Recombinant Human IL-13 [6] = biological target: T3, Recombinant Human IL-13 (human, UniProt P35225 35-146, limits assumed); test: Biacore SPR
Method: as §1

Recombinant Human IL-13 [7] = biological target: T3, Recombinant Human IL-13; test: cell-based or functional assay
[8] = biological target: T4, Recombinant Human IL-6 sR (human, UniProt P08887 20-358, limits assumed); test: direct bind ELISA
T4 construct: domain: IL-6 sR; soluble receptor; also called IL-6R
T4 sequence (looked up): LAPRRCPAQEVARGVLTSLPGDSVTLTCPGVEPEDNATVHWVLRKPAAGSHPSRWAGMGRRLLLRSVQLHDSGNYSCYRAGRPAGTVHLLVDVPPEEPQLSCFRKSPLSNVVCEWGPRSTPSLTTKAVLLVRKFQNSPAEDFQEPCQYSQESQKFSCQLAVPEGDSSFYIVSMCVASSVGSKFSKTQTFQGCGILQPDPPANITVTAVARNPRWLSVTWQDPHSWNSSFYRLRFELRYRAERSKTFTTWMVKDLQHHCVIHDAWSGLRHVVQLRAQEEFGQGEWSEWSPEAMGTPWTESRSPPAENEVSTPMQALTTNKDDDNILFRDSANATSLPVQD
Method: as §2, §3, §4

IL-6R on cells [9] = biological target: T5, IL-6R on cells (UniProt P08887 20-468, limits assumed); test: cell-based or functional assay
T5 sequence (looked up): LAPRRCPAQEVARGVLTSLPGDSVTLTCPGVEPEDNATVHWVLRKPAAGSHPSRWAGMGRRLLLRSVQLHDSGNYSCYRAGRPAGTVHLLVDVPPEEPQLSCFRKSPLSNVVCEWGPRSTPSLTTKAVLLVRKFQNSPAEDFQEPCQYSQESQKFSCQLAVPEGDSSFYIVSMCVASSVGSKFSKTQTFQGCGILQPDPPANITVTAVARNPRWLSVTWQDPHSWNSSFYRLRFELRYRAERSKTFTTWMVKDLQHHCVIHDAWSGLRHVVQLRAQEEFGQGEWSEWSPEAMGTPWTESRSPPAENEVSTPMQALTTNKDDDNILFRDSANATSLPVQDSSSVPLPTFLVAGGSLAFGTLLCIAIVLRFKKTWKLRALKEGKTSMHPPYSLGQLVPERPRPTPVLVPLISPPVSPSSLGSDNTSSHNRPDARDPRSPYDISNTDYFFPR

IL-6R on cells [10] = biological target: T5, IL-6R on cells; test: flow cytometry on cells, 2 µg/mL
Method: Stable cell lines overexpressing a cell-surface antigen of interest or human tumor cell lines were harvested from tissue culture flasks and resuspended in phosphate buffered saline (PBS) containing 5% fetal bovine serum (PBS/FBS). Prior to staining, human tumor cells were incubated on ice with (100 μl) human IgG at 5 μg/ml in PBS/FCS. 1−5×10⁵ cells were incubated with antibody or DVD-Ig (2 μg/mL) in PBS/FBS for 30-60 minutes on ice. […] After 30 minutes incubation on ice, cells were washed twice and resuspended in PBS/FBS. Fluorescence was measured using a Becton Dickinson FACSCalibur (Becton Dickinson, San Jose, Calif.).
The geometric mean is the n root of the multiplication product of n fluorescent signals (a1×a2×a3 . . . an). With log-transformed data the geometric mean is used to normalize the weighting of the data distribution.

[11] = biological target: T4, Recombinant Human IL-6 sR; test: Biacore SPR
Method: as §1

Recombinant Human IL-4 [12] = biological target: T6, Recombinant Human IL-4 (human, UniProt P05112 25-153); test: Biacore SPR
T6 sequence (looked up): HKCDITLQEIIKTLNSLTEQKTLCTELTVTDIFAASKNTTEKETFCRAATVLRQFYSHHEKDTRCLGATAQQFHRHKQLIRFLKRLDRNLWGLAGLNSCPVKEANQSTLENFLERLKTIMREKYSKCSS
Method: as §1

Recombinant Human IL-4 [13] = biological target: T6, Recombinant Human IL-4; test: direct bind ELISA
Method: as §2, §3, §4

Recombinant Human IL-4 [14] = biological target: T6, Recombinant Human IL-4; test: cell-based or functional assay

Sequence of Recombinant Human IL-9 (P15248 19-144 limits assumed): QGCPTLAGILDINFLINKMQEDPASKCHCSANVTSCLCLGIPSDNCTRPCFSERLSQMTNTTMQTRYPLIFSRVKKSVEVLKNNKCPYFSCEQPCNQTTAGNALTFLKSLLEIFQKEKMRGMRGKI
T3 sequence (P35225 35-146 limits assumed): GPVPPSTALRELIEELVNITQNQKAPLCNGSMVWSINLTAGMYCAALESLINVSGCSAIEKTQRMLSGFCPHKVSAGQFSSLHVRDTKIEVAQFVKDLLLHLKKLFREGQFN

B1: DVD126 (bispecific antibody, human IgG1, kappa)
heavy: not shown
light: EIVLTQSPGTLSLSPGERATLSCRASQSVRGRYLAWYQQKPGQAPRLLIYGASSRATGIPDRFSGSGSGTDFTLTISRLEPEDFAVFYCQQYGSSPRTFGQGTKVEIKRTVAAPEIVLTQSPDFQSVTPKEKVTITCRASQSIGSSLHWYQQKPDQSPKLLIKYASQSFSGVPSRFSGSGSGTDFTLTINSLEAEDAAAYYCHQSSSLPFTFGPGTKVDIKRTVAAPSVFIFPPSDEQLKSGTASVVCLLNNFYPREAKVQWKVDNALQSGNSQESVTEQDSKDSTYSLSSTLTLSKADYEKHKVYACEVTHQGLSSPVTKSFNRGEC
notes: outer AB018, inner AB032; vectors V1, V2
Kd [1]: < 0.00877 nM | koff [1]: < 1e-06 s⁻¹ | kon [1]: 114000 M⁻¹ s⁻¹ | Kd (Recombinant Human IL-1β [2]): < 0.117 nM | koff (Recombinant Human IL-1β [2]): < 1e-06 s⁻¹ | kon (Recombinant Human IL-1β [2]): 8520 M⁻¹ s⁻¹ | EC50 [3]: 0.4 nM | EC50 (Recombinant Human IL-1β [4]): 4460 nM | IL-1β Neutralization Assay EC50 (MRC5 cells, hIL-8) (Recombinant Human IL-1β [5]): 4.29 nM

B2: AB056 (antibody, human IgG1, kappa, V domains shown)
VH: QVQLQQSGAELMKPGASVKLSCKATGYTFTGSWIEWIKQRPGHGLEWIGQILPGSGSAYYNEKFKGKATFTADTSSKTVYIQLISLTTEDSAIYYCAREDNYGSSSLAYWGQGTLLTVSA
VL: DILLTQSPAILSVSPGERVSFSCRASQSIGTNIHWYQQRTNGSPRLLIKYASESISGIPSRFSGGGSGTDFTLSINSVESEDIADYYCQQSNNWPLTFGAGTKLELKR
notes: vectors V1 and V2
Kd (Recombinant Human IL-9): 0.00993 nM | koff (Recombinant Human IL-9): 5.62e-05 s⁻¹ | kon (Recombinant Human IL-9): 5.66e+06 M⁻¹ s⁻¹

B3: AB051 (antibody, human IgG1, kappa, V domains shown)
VH: EVTLRESGPGLVKPTQTLTLTCTLYGFSLSTSDMGVDWIRQPPGKGLEWLAHIWWDDVKRYNPALKSRLTISKDTSKNQVVLKLTSVDPVDTATYYCARTVSSGYIYYAMDYWGQGTLVTVSS
VL: DIQMTQSPSSLSASVGDRVTISCRASQDIRNYLNWYQQKPGKAPKLLIFYTSKLHSGVPSRFSGSGSGTDYTLTISSLQPEDIATYYCQQGLTPPLTFGGGTKVEIKR
notes: vectors V1 and V2
kon (Recombinant Human IL-13 [6]): 2.14e+06 M⁻¹ s⁻¹ | IL-13 Neutralization Assay EC50 (A549 cells, hTARC) (Recombinant Human IL-13 [7]): 0.1 nM

B4: DVD129 (bispecific antibody, human IgG1, kappa)
heavy: not shown
light: DIQMTQSPSSLSASVGDRVTITCRASQDISSYLNWYQQKPGKAPKLLIYYTSRLHSGVPSRFSGSGSGTDFTFTISSLQPEDIATYYCQQGNTLPYTFGQGTKVEIKRTVAAPEIVLTQSPGTLSLSPGERATLSCRASQSVRGRYLAWYQQKPGQAPRLLIYGASSRATGIPDRFSGSGSGTDFTLTISRLEPEDFAVFYCQQYGSSPRTFGQGTKVEIKRTVAAPSVFIFPPSDEQLKSGTASVVCLLNNFYPREAKVQWKVDNALQSGNSQESVTEQDSKDSTYSLSSTLTLSKADYEKHKVYACEVTHQGLSSPVTKSFNRGEC
notes: vectors V1, V2; also called IL-6R and RANKL DVD-Ig
EC50 [8]: 0.96 nM | EC50 [3]: 0.53 nM | IL-6 induced pSTAT3 in TF-1 cells, EC50 (IL-6R on cells [9]): 0.16 nM | FACS Geometric Mean (IL-6R on cells [10]): 8.43

B5: AB054 (antibody, human IgG1, kappa, V domains shown)
VH: EVQLQESGPGLVRPSQTLSLTCTVSGYSITSDHAWSWVRQPPGRGLEWIGYISYSGITTYNPSLKSRVTMLRDTSKNQFSLRLSSVTAADTAVYYCARSLARTTAMDYWGQGSLVTVSS
VL: DIQMTQSPSSLSASVGDRVTITCRASQDISSYLNWYQQKPGKAPKLLIYYTSRLHSGVPSRFSGSGSGTDFTFTISSLQPEDIATYYCQQGNTLPYTFGQGTKVEIKR
notes: vectors V1 and V2; also called anti-IL-6R parent antibody
Kd [11]: 0.614 nM | koff [11]: 0.000206 s⁻¹ | kon [11]: 336000 M⁻¹ s⁻¹ | EC50 [8]: 1.42 nM and 1.24 nM and 1.31 nM | IL-6 induced pSTAT3 in TF-1 cells, EC50 (IL-6R on cells [9]): 70 pM | FACS Geometric Mean (IL-6R on cells [10]): 5.94

B6: AB027 (antibody, human IgG1, kappa, V domains shown)
VH: QVTLRESGPALVKPTQTLTLTCTFSGFSLSTSGMGVSWIRQPPGKGLEWLAHIYWDDDKRYNPSLKSRLTISKDTSRNQVVLTMTNMDPVDTATYYCARRETVFYWYFDVWGRGTPVTVSS
VL: DIVLTQSPSSLSASVGDRVTITCKASQSVDYDGDSYMNWYQQKPGKAPKLLIYAASNLESGIPSRFSGSGSGTDFTFTISSLQPEDIATYYCQQSNEDPPTFGQGTKVEIKR
notes: vectors V1 and V2; also called anti-IL-4 parent antibody
Kd (Recombinant Human IL-4 [12]): 0.0219 nM | koff (Recombinant Human IL-4 [12]): 0.00013 s⁻¹ | kon (Recombinant Human IL-4 [12]): 5.92e+06 M⁻¹ s⁻¹ | EC50 (Recombinant Human IL-4 [13]): 5.81 nM | IL-4 Neutralization Assay EC50 (A549 cells, hTARC) (Recombinant Human IL-4 [14]): 0.21 nM
